From paper PMC3681700 (Molecular Biology of the Cell, 2013)
Where two headings read alike, the source gives them in different places. Each block holds one binder with its values, some of them ahead of it.

Assays:
[1] = target: T1, Taxol-stabilized microtubules assembled from bovine brain tubulin (bovine, UniProt Q6B856 1-445); assay: co-sedimentation
[2] = target: T1, Taxol-stabilized microtubules assembled …

Kd [1]: 19 ± 2 nM
B1: MAP65-4 (GFP-MAP65-4) (natural protein, Arabidopsis thaliana, UniProt Q9LZY0 1-677, looked up)
chain: MIRNSTEQFSRIETTCGLLLRQLQEIWNEMGETEDEKDASLADIEKECLSVYKRKVEEASRGKANLLKEIAVGRAEIAAIGSSMGGQEIHSNSRLGENLKEELENVNVQLDGLRKRKAERMIRFNEVIDQLLKLSLQLGNPTDYLKKFAAEETDLSLQRLEELRSQLGELQNEKSKRLEEVECLLKTLNSLCSVLGEDFKGMIRGIHSSLVDSNTRDVSRSTLDKLDMMIVNLREAKLQRMQKVQDLAVSLLELWNLLDTPAEEQKIFHNVTCSIALTESEITEANILSVASIKRVEDEVIRLSKIKITKIKEVILRKRLELEEISRKMHMATEVLKSENFSVEAIESGVKDPEQLLEQIDSEIAKVKEEASSRKEILEKVEKWMSACEEESWLEEYNRDDNRYNAGRGAHLTLKRAEKARLLVNKLPGMVEALTAKVTAWENERGNEFLYDGVRVLSMLGQYKTVWEEKEHEKQRQRDMKKLHGQLITEQEALYGSKPSPNKSGKKPLRTPVNAAMNRKLSLGGAMLHQSLKHEKATLNSKRTKYYDQNATSRRDSALPTLSGRRNSELPGRIRSKNVPVAGKAARSPMLRKPLSPVTSNILNSPEDHHKDAYTTKERILTPKTNEEKKRAVPTTPAASVAMTEATTPFTPAVEKRMDEEDVIVEYSFEEVRAGFC

Kd [2]: 41 ± 7 nM
B2: Ase1 (natural protein, yeast, UniProt P50275 1-885, looked up)
chain: METATSSPLPIKSRRNSENSGSTTVIPHMNPSLATPLTVSTMVNQSNSKEFMKLTPVRIRDFGSPLKNVSTNYHFLDSENGKGNTMDNMYRENFILISKDLEKLLENLNVIYQNIGYSNTEIITKEKIIFTTISNSIKQFFEQADEELKRLSAENGIEQDILNNILERINDPSGIKTIPDLYIRNAILLQESKTVPQSPKKPLSLLSKKAALDTAKKFVLGSFLPRLRDYLKSLITLKHLIQSVKENLPGLTEADNEAIAEFPELSTLTAYLLQIENGKGDIGLSMKFIIDNRKDILKGSAFKTINEESVKHMNEVIKIYEEEYERRFKSVLTKKVSISSICEQLGTPLATLIGEDFEQDLRSYGEEENSTSEIPNFHPVDRERMSKIDITLEKLQAIHKERADKKRLLMEQCQKLWTRLKISQEYIKTFMRNNSSLSTESLGRISKEVMRLEAMKKKLIKKLISDSWDKIQELWRTLQYSEESRSKFIIVFEELRNSATTLQEDELLLETCENELKRLEEKLTLYKPILKLISDFESLQEDQEFLERSSKDSSRLLSRNSHKILLTEEKMRKRITRHFPRVINDLRIKLEEADGLFDQPFLFKGKPLSEAIDIQQQEIEAKYPRCRVRMQRSKKGKCGANKENKVIKNTFKATESSIRVPIGLNLNDANITYKTPSKKTIQGLTKNDLSQENSLARHMQGTTKLSSPNRRATRLLAPTVISRNSKGNIERPTLNRNRSSDLSSSPRINHTHGEHAVKPRQLFPIPLNKVDTKGSHIPQLTKEKALELLKRSTGTTGKENVRSPERKSSLEDYAQKLSSPYKEPEHSIYKLSMSPEGKFQLNIQQKDIESGFDDTSMMEDENDKDFITWKNEQVSKLNGFSFTDI

Kd [1]: 21 ± 2 nM
B3: MAP65-1 (GFP-MAP65-1) (natural protein, Arabidopsis thaliana, UniProt Q9FLP0 1-587, looked up)
chain: MAVTDTESPHLGEITCGTLLEKLQEIWDEVGESDDERDKLLLQIEQECLDVYKRKVEQAAKSRAELLQTLSDANAELSSLTMSLGDKSLVGIPDKSSGTIKEQLAAIAPALEQLWQQKEERVREFSDVQSQIQKICGDIAGGLSNEVPIVDESDLSLKKLDDFQSQLQELQKEKSDRLRKVLEFVSTVHDLCAVLGLDFLSTVTEVHPSLDEDTSVQSKSISNETLSRLAKTVLTLKDDKKQRLQKLQELATQLIDLWNLMDTPDEERELFDHVTCNISSSVDEVTVPGALARDLIEQAEVEVDRLDQLKASRMKEIAFKKQSELEEIYARAHVEVNPESARERIMSLIDSGNVEPTELLADMDSQISKAKEEAFSRKDILDRVEKWMSACEEESWLEDYNRDQNRYSASRGAHLNLKRAEKARILVSKIPAMVDTLVAKTRAWEEEHSMSFAYDGVPLLAMLDEYGMLRQEREEEKRRLREQKKVQEQPHVEQESAFSTRPSPARPVSAKKTVGPRANNGGANGTHNRRLSLNANQNGSRSTAKEAGRRETLNRPAAPTNYVAISKEEAASSPVSGAADHQVPASP
